Measured values as given in patent publication US10502741B2, “Means and methods for detecting activated MALT1” (Helmholtz Zentrum München Deutsches Forschungszentrum für …, priority 2014, dated 2019).
The star is where a group is joined. BODIPY(FL) = CC1=CC(C)=[N+]2C1=Cc1ccc(CCC(=O)*)n1[B-]2(F)F; AOMK = acyloxymethyl ketone C-terminal warhead; alkyne = not defined here

How the values were obtained:
active MALT1 [1] = target: T1, active MALT1 (Homo sapiens, UniProt Q9UDY8); assay: Labeling with diagnostic inhibitor in cell extracts (gel-based, fluorescence scan): active MALT1 band; settings: 2×10^6 primary human T cells, 3 μM probe
T1 construct: endogenous in cells; host or cells: Jurkat T cells, primary human PBMCs and T cells, DLBCL cell lines (HBL1, TMD8, OCI-Ly3, OCI-Ly10, U2932, RIVA, BJAB, Su-DHL-4, Su-DHL-6)
T1 sequence (Q9UDY8 1-824): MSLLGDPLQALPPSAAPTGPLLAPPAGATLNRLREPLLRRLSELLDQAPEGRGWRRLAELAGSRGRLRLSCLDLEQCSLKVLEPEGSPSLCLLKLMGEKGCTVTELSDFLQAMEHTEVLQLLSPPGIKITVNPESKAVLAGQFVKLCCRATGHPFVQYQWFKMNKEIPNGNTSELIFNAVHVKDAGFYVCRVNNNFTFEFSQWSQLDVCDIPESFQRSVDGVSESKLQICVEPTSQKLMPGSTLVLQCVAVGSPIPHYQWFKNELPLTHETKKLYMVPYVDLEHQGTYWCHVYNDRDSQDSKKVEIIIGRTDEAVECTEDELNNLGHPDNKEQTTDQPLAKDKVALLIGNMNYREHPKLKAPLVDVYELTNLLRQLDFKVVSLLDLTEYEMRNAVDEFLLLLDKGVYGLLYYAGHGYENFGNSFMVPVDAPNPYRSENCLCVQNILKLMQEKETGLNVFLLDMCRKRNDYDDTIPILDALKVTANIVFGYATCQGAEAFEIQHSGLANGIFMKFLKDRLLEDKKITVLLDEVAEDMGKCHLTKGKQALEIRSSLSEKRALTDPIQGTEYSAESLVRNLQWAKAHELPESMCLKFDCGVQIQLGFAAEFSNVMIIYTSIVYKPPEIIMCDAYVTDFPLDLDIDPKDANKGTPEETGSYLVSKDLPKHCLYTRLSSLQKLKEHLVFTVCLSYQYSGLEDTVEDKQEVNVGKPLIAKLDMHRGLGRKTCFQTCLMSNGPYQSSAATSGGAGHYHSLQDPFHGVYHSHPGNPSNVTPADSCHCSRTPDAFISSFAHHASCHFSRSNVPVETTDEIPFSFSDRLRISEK

cathepsin B = cathepsin B (Homo sapiens, UniProt P07858); assay: Labeling with diagnostic inhibitor in cell extracts (gel-based, fluorescence scan): about 30 kDa cathepsin B band; design: endogenous in cells; host or cells: Jurkat T cells; HBL1 and other DLBCL cell lines; settings: Jurkat T cells, whole cell extract
Description: (§1) Jurkat T cells were cultured in standard RPMI medium containing 10% FCS, 100 U/ml Penicillin/Streptomycin and 2 mM Glutamin. DNA transfection of 6 μg DNA in 8×10^6 Jurkat T cells was performed by electroporation in a GenePulser Xcell (BioRad) with a 220 Volt pulse. For siRNA experiments, Jurkat T cells were transfected with 100 nM siRNA and Atufect transfection reagent (Silence Therapeutics, Berlin). Jurkat T cells were stimulated either with 200 ng/ml PMA (phorbol 12-myristate 13-acetate) and 300 ng/ml Ionomycin (both Calbiochem) or CD3/CD28 antibody co-ligation (human CD3: 1 μg/ml; human CD28: 4 μg/ml; mouse IgG1: 2 μg/ml; mouse IgG2a: 2 μg/ml; BD Biosciences). DLBCL cell lines (HBL1, TMD8, OCI-Ly3, U2932, RIVA, BJAB, Su-DHL-4 and Su-DHL-6) were cultured in standard RPMI medium containing 20% FCS, 100 U/ml Penicillin/Streptomycin and 2 mM Glutamin. OCI-Ly10 cell line was cultured in IMDM containing 20% human serum, 100 U/ml Penicillin/Streptomycin, 2 U/ml heparine, 50 μM β-mercaptoethanol. Inhibitors 10 μM (z-VRPR-FMK, Mepazine, Thioridazine, CA-074Me) were added to the cells in media for 1 h, prior to stimulation and labeling with diagnostic MALT1 inhibitor.
(§2) Jurkat T cells (1-2×10^7), primary human PBMCs or primary human T cells (0.25 or 1×10^7) were lysed in 150 μl co-IP buffer without protease inhibitors. DLBCL (3×10^7) were lysed in 250 μl buffer. After centrifugation (14000 rpm, 10 min, 4° C.), 100 μl extract (DLBCL: 200 μl) was stained with probe 5 or probe 6 (3 μM end) for 50 min at 29° C., mixed with 4× loading dye and boiled.

active MALT1 [2] = target: T1, active MALT1; assay: Labeling with diagnostic inhibitor in cell extracts (gel-based, fluorescence scan): active MALT1 band
Description: as §1, §2

FLAG-MALT1 wt = target: T2, FLAG-MALT1 wt (Homo sapiens, UniProt Q9UDY8); assay: Labeling with diagnostic MALT1 inhibitor after immunoprecipitation (gel-based, fluorescence scan); assay type: binding; settings: probe pre-clicked to TAMRA, after FLAG immunoprecipitation in Jurkat T cells
T2 construct: expressed in transfected cells; host or cells: Jurkat T cells (pEF vector, electroporation)
T2 sequence (Q9UDY8 1-813 isoform Q9UDY8-2): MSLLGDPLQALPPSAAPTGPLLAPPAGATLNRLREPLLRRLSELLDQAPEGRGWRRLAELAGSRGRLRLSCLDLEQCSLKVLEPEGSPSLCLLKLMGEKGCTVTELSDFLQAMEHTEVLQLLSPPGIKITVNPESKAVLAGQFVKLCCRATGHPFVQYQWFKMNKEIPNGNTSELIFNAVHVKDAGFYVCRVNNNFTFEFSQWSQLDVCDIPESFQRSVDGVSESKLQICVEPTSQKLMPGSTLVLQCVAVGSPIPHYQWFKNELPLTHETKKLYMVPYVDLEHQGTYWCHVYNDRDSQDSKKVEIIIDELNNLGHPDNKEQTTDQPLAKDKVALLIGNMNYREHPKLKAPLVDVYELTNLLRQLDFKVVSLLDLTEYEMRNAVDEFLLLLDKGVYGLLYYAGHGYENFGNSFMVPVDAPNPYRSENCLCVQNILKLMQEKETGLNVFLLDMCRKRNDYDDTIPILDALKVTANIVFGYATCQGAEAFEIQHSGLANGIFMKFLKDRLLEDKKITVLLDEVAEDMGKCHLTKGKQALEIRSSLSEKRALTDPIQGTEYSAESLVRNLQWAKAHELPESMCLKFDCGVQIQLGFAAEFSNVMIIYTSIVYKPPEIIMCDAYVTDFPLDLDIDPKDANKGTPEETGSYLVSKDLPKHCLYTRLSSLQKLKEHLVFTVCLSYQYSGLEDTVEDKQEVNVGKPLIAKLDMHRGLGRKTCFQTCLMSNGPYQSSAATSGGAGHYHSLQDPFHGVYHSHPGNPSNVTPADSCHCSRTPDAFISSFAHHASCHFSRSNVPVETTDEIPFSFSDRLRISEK
Description: Jurkat T cells, transfected with active FLAG-[…] wt or active site mutant C464A, were stained after lysis and IP with probe 2, pre-clicked to TAMRA. Analysis was done by fluorescence staining.
Copper I-catalysed click chemistry reaction was performed in 50 μl 50 mM hepes with 10 μM alkyne-LRSR-AOMK (probe 2) and 10 μM N-TAMRA-3-aminopropylazide or 100 μM N-FITC-3-aminopropylazide. Reducing agent sodium ascorbate (0.5 mM), TBTA (50 μM) and CuSO4 (1 mM) were added to the reaction and incubated for 45 min at RT.
Cells were lysed in 500 μl co-IP buffer without protease inhibitors (25 mM hepes pH 7.5, 150 mM NaCl, 0.2% NP-40, 10% glycerol, 1 mM DTT, 10 mM sodium fluoride, 8 mM (3-glycerophosphate and 300 μM sodium vanadate), centrifuged (14000 rpm, 10 min, 4° C.) and overexpressed FLAG MALT1 was immunoprecipitated by FLAG (M2) antibody for 3 hours at 4° C. PGS was added for 1 h at 4° C., precipitate was washed 2× with co-IP buffer and 1× with 50 mM hepes pH 7.4. Precipitated MALT1 was incubated with 0.3 μM pre-clicked probe 2 (in 20 μl 50 mM hepes pH 7.4) for 50 min at 29° C., mixed with 4× loading dye and boiled for 3 min. After protein separation by SDS PAGE, staining with diagnostic inhibitor was detected by Typhoon Fluorescence Scanner (FITC laser 488 nm/filter 526 SP; TAMRA laser 532 nm/filter 580 BP).

(BODIPY-FL)-LRSR-AOMK ({BODIPY(FL)}-LRSR-{AOMK}) [probe 6]
active MALT1 signal in primary human T cells, gel-based (active MALT1 [1]): weak active MALT1 signal
cathepsin B labeling compared with probe 5 (cathepsin B): cathepsin B labeling was even reduced
active MALT1 signal in lymphoma whole cell extracts (active MALT1 [2]; ABC DLBCL cells (HBL1 for probe 6)): weakly labeled active MALT1
active MALT1 labeling compared with probe 5 (active MALT1 [2]; Jurkat T cells, whole cell extract): slightly more effective in active MALT1 labeling
MALT1-probe complex in ABC DLBCL cells (active MALT1 [2]; panel of ABC DLBCL pretreated with CA-074Me, whole cell lysates, no stimulation): detected even in the absence of any stimulation
MALT1-probe labeling in GCB DLBCL cells (active MALT1 [2]; panel of GCB DLBCL pretreated with CA-074Me, whole cell lysates): all negative

alkyne-LRSR-AOMK (alkyne-LRSR-{AOMK}; not fully specified; reading uncertain) [probe 2, used pre-clicked to TAMRA]
labeling of overexpressed FLAG-MALT1 wt versus catalytic inactive mutant (FLAG-MALT1 wt): FLAG-MALT1 wt but not the catalytic inactive mutant was detected
